# Patent US8323971B2, “Differentiation of pluripotent cells into primary germ layer progenitors” (Cambridge Enterprise Limited, priority 2006, dated 2012)
# What was measured:
# Format in all cases: cell-based, human
# hESC derived EBs [1] = assay: Quantitation of rosette structures in EBs; conditions: expressing EBs grown in CDM
# Method: (§1) Lefty or Cerb-S expressing hESCs (as well as wildtype H9 and hSF-6 hESCs) were grown in 6 cm dishes (Corning), on mouse feeders. When confluent, hESCs were passaged using collagenase 1 mg/ml, as previously described (Schatten et al., 2005) and cultured in non-adherent conditions in CDM supplemented with either SU5402 (Calbiochem; 10 μM), SB431542 (Tocris; 20 μM), FGF-2 (R&D Systems; 12 ng/ml) or Noggin 200 ng/ml.
# To investigate the development of EBs derived from Lefty or Cerb-S overexpressing hESCs, we grew the cells as EBs in suspension culture using CDM medium. As previously observed (Vallier et al., 2004a), wildtype control EBs grown in CDM developed almost exclusively as simple spheres with no apparent tissue organisation. […] Hematoxylin/Eosin staining of sectioned EBs confirmed that these folded structures found in Lefty overexpressing EBs were neuroectoderm-like, with internal epithelial rosettes. Lefty and Cerb-S expressing EBs contained respectively 5 times (Pb 0.05) and 2 times (not significant, N.S.) more epithelial rosettes than control EBs (FIG. 5).
# hESC derived EBs [2] = assay: Incidence of beating structures in EBs plated in MEF media; conditions: over-expressing EBs in MEF medium containing FBS
# Method: Lefty, Cerb-S expressing and wildtype EBs were plated in MEF media, and beating EBs were counted. Lefty expressing EBs generated fewer beating structures as compared to wildtype EBs (NS=not significant) (Scale bar=[…]).
# In some experiments, hESCs were incubated in DMEM supplemented with 10% FCS and 1 mM glutamine (MEF media) to promote mesoderm formation. EBs were then grown for 12-16 days at 37° C. at […] before being harvested for histological or molecular marker analysis.
# To evaluate further the differentiation potential of Lefty and Cerb-S overexpressing hESCs, EBs were cultured in MEF medium containing fetal bovine serum (FBS), which promotes the formation of mesoderm lineages including cardiomyocytes, as recognised by rhythmically beating structures. […] Nodal expressing EBs grown in these conditions were not seen to generate such beating structures, and instead maintained expression of the pluripotency marker Oct-4 (FIG. 7).
# hESCs = assay: Quantitation of β-tubulin III positive cells in monolayer differentiation; conditions: expressing hESCs differentiated in CDM, monolayer, 24 days
# Method: In some experiments, Wildtype and Lefty expressing hESCs were grown on fibronectin in FGF (12 ng/ml)/Activin (20 ng/ml) as a monolayer in the absence of a feeder layer (Vallier et al., 2005). When cells were 70-80% confluent medium was changed to either CDM only, CDM/FGF (12 ng/ml), CDM/Noggin 200 ng/ml, CDM/SU5402 and differentiated for 24 days.
# To quantify the neurogenic potential of Lefty expressing hESCs, we cultured Lefty expressing hESCs in feeder-free conditions as a monolayer in CDM supplemented with Activin and FGF as described previously (Vallier et al., 2005). When cells reached 70-80% confluency, medium was changed to CDM only, CDM plus FGF (12 ng/ml) (CDM/FGF), CDM plus the BMP inhibitor Noggin (200 ng/ml) ([…]) (CDM/SU5402), and cells were cultured in these conditions for 24 days
# The incidence of neural differentiation was determined by counting the number of β-tubulin III positive cells in random fields.
# hESC derived EBs [3] = assay: Real time qPCR / RT-PCR of neuroectoderm and pluripotency markers in EBs; conditions: expressing EBs compared to wildtype
# Method: Four independent batches of WT and Lefty EBs were used for this analysis.
# Five independent batches of DMSO- and SB431542-treated EBs were used for this analysis.
# as §1
# For some RT-PCR experiments, 50-100 ng of RNA were used for each RT-PCR reaction, using the OneStep RT-PCR kit according to manufacturer instructions. For real-time PCR, 1 μg RNA was reverse-transcribed using the Qiagen QuantiTect Reverse Transcription kit. 1/20-1/40 of each cDNA reaction was used for each real-time PCR reaction using the QuantiTect SYBR Green PCR Kit (Qiagen) according to manufacturer instructions. Relative quantification of gene expression was done by normalising the detected levels of gene of interest mRNA to those of the house-keeping GAPDH gene. All primers were purchased from Qiagen, with the exception of Xenopus Cerb-S: Forward 5′-[…]-3′ (SEQ ID NO: 1); Reverse 5′-ATGGTGCAGGGTAG TAGATG-3′ (SEQ ID NO: 2). Mouse Lefty2: Forward 5^r-[…]-3′ (SEQ ID NO: 3); Reverse 5′-[…]-3′ (SEQ ID NO: 4).
molecule,measurement,setting,value
"Lefty: mouse Lefty2, Nodal inhibitor stably over-expressed in hESCs (protein, UniProt P57785 78-368, looked up) Left-right determination …: FSQNFREVAGRFLMSETSTHLLVFGMEQRLPPNSELVQAVLRLFQEPVPRTALRRFERLSPHSARARVTIEWLRVREDGSNRTALIDSRLVSIHESGWKAFDVTEAVNFWQQLSRPRQPLLLQVSVQREHLGPGTWSAHKLVRFAAQGTPDGKGQGEPQLELHTLDLKDYGAQGNCDPEVPVTEGTRCCRQEMYLDLQGMKWAENWILEPPGFLTYECVGSCLQLPESLTIGWPFLGPRQCVASEMTSLPMIVSVKEGGRTRPQVVSLPNMRVQTCSCASDGALIPRGIDL",epithelial rosettes relative to control EBs,hESC derived EBs [1],5 times
same,decrease of incidence of rhythmically contracting structures compared to wildtype EBs,hESC derived EBs [2],~79%
same,β-tubulin III positive cells/field,hESCs,69±13 cells/field
same,"Nestin, Sox3 and Sox1 expression (real-time qPCR)",hESC derived EBs [3],increased average levels
